The record followed here is patent US7115260B2, “Interleukin-1β converting enzyme like apoptotic protease-6” (Human Genome Sciences, Inc., priority 1996, dated 2006).

Peptide text beside a SMILES is read from it. * marks the point of attachment. Cbz = O=C(OCc1ccccc1)*; CH2F = FC*

For one assay, the target named is T1, ICE LAP-6 (Homo sapiens, UniProt P55211, A28V/A96G/Q221R).
T1 construct: transiently transfected with an expression vector encoding the full-length ICE LAP-6 protein (ICE LAP-6-flag); expressed in transfected cells; host or cells: MCF7 breast carcinoma cells, pcDNA3 vector
T1 sequence (P55211 1-416 A28V/A96G/Q221R): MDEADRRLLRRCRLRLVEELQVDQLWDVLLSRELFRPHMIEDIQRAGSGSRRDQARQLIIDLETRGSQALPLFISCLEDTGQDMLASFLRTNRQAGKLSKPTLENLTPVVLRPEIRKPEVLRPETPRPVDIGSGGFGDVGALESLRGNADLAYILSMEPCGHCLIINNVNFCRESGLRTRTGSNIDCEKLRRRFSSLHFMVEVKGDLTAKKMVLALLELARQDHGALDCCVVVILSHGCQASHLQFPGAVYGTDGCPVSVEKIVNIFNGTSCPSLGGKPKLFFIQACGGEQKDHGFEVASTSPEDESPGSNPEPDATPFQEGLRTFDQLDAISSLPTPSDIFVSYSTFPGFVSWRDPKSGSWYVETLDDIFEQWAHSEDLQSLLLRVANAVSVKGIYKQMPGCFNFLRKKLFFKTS
Put plainly: Inhibition of ICE LAP-6 induced apoptosis in transfected MCF7 cells. The following applies: MCF7 cells transfected with ICE LAP-6-flag. In kind it is cell-based. The protocol:
(§1) MCF7 breast carcinoma cells were transiently transfected as described previously (Chinnaiyan, A. M., et al (1995) Cell 81, 505–512). Briefly, 2.5×10^5 MCF7 cells were transfected with 0.25 μg of the reporter plasmid pCMV β-galactosidase plus 1 μg of test plasmid in 6-well tissue culture dishes using lipofectamine as per manufacturer's instructions. The transfection was carried out in 1 ml of Opti-MEM Minimal Media (GMBCO-BRL) and after 5 hours, 1 ml of serum-containing growth media was added. Two days later, the cells were fixed with 0.5% glutaraldehyde and stained with X-gal for 4 hours. Cells were visualized by phase-contrast microscopy. At least 300 β-galactosidase-positive cells were counted for each transfection (n=3) and identified as apoptotic or nonapoptotic based on morphological alterations typical of adherent cells undergoing apoptosis including becoming rounded, condensed, and detaching from the dish (Cohen, J. J. (1993) Immunology Today 14, 126–130). […] Samples were analyzed by immunoblotting with anti-PARP monoclonal antibody C-2-10 as described previously Tewari, M., et al. (1995) Cell 81, 801–809).
(§2) To study the functional role of ICE LAP-6, MCF7 breast carcinoma cells were transiently transfected with an expression vector encoding the full-length ICE LAP-6 protein (ICE LAP-6-flag) and subsequently assessed for apoptotic features. […]

The target in a further assay is T2, pro-Yama (Homo sapiens, UniProt P42574).
T2 construct: His6; made in house; host or cells: cell-free in vitro transcription/translation, TNT kit (Promega)
T2 sequence (P42574 1-277): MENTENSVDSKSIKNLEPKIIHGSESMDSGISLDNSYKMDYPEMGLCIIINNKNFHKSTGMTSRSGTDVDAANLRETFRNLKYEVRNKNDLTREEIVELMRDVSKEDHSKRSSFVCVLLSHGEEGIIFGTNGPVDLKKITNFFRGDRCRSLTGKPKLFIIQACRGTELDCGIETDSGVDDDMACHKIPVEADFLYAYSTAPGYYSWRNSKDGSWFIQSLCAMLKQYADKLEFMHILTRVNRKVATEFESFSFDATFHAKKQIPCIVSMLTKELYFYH
The assay is described as follows: Proteolytic activation of in vitro-translated pro-Yama by granzyme B. The following applies: purified granzyme B. In kind it is biochemical.

For the next assay, the target named is T3, pro-ICE LAP-6 (Homo sapiens, UniProt P55211, A28V/A96G/Q221R).
T3 construct: made in house; host or cells: cell-free in vitro transcription/translation, TNT kit (Promega)
T3 sequence (P55211 1-416 A28V/A96G/Q221R): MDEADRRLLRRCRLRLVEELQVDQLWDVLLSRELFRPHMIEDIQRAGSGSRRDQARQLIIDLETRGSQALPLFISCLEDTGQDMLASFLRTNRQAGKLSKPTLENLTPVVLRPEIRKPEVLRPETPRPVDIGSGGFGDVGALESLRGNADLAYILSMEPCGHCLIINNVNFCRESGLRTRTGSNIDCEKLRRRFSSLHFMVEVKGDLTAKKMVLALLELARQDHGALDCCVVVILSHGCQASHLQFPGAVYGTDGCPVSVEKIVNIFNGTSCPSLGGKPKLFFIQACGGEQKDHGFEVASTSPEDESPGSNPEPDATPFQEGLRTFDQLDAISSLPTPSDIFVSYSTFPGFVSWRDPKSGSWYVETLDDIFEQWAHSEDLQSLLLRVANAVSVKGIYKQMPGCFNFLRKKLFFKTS
Put plainly: Proteolytic activation of in vitro-translated pro-ICE LAP-6 by granzyme B. Type of assay: biochemical. The following applies: 20 pmole granzyme B, 4 hours at 37° C., SDS-PAGE.

Assay [1] deals with MCF7 breast carcinoma cells. Put plainly: Apoptosis assay in transiently transfected MCF7 cells. Type of assay: cell-based. To be noted: transient transfection of expression vector, morphology of β-galactosidase-positive cells, two days. As to the method: as §1, §2
The test system of the next assay is PARP. Put plainly: PARP cleavage by granzyme B-processed protease (anti-PARP immunoblot). Type of assay: biochemical. The following applies: after granzyme B processing, anti-GraB added, 2 hours, 37° C. As to the method:
as §1, with “801–809). […]” for “801–809).”
A general note: In western blotting, separated proteins are transferred to a membrane and probed.

As to `COC(=O)C[C@H](NC(=O)[C@H](C)NC(=O)[C@@H](NC(=O)OCc1ccccc1)C(C)C)C(=O)CF` [z-VAD fmk] (Cbz-Val-Ala-Asp(OMe)-CH2F), the “inhibition of ICE LAP-6 induced apoptosis” value against ICE LAP-6 is given as “inhibited”.

As to “granzyme B: secreted serine protease, effector of cytotoxic T cell-mediated apoptosis”, the “activation of Yama in vitro” value with pro-Yama is “directly activates”. Moreover, the “proteolytic processing of pro-ICE LAP-6” value with pro-ICE LAP-6 was “proteolytically processed into 3 fragments”.

B1: ICE LAP-6: novel human member of the ICE/ced-3 family of cysteine proteases, active site QACGG, predicted 45.8 kD (protein)
chain: MDEADRRLLRRCRLRLVEELQVDQLWDVLLSRELFRPHMIEDIQRAGSGSRRDQARQLIIDLETRGSQALPLFISCLEDTGQDMLASFLRTNRQAGKLSKPTLENLTPVVLRPEIRKPEVLRPETPRPVDIGSGGFGDVGALESLRGNADLAYILSMEPCGHCLIINNVNFCRESGLRTRTGSNIDCEKLRRRFSSLHFMVEVKGDLTAKKMVLALLELARQDHGALDCCVVVILSHGCQASHLQFPGAVYGTDGCPVSVEKIVNIFNGTSCPSLGGKPKLFFIQACGGEQKDHGFEVASTSPEDESPGSNPEPDATPFQEGLRTFDQLDAISSLPTPSDIFVSYSTFPGFVSWRDPKSGSWYVETLDDIFEQWAHSEDLQSLLLRVANAVSVKGIYKQMPGCFNFLRKKLFFKTSHHHHHH
Regarding B1, the “induction of apoptosis / cell death on overexpression” value in assay [1] is “caused cell death”. In the assay on PARP, the “ability to cleave PARP” value is “active”.

B2: Yama: ICE/Ced-3 family cysteine protease; p17 and p12 subunits derived from a 32 kDa proenzyme (protein)
chain: MENTENSVDSKSIKNLEPKIIHGSESMDSGISLDNSYKMDYPEMGLCIIINNKNFHKSTGMTSRSGTDVDAANLRETFRNLKYEVRNKNDLTREEIVELMRDVSKEDHSKRSSFVCVLLSHGEEGIIFGTNGPVDLKKITNFFRGDRCRSLTGKPKLFIIQACRGTELDCGIETDSGVDDDMACHKIPVEADFLYAYSTAPGYYSWRNSKDGSWFIQSLCAMLKQYADKLEFMHILTRVNRKVATEFESFSFDATFHAKKQIPCIVSMLTKELYFYHHHHHHH
Regarding B2, the “ability to cleave PARP” value with PARP is “active”.

B3: ICE LAP-6 mt: mutant version of ICE LAP-6 with the catalytic cysteine residue (Cys286) altered to an alanine (protein, UniProt P55211 1-416, looked up, variant C287A)
chain: MDEADRRLLRRCRLRLVEELQVDQLWDALLSRELFRPHMIEDIQRAGSGSRRDQARQLIIDLETRGSQALPLFISCLEDTGQDMLASFLRTNRQAAKLSKPTLENLTPVVLRPEIRKPEVLRPETPRPVDIGSGGFGDVGALESLRGNADLAYILSMEPCGHCLIINNVNFCRESGLRTRTGSNIDCEKLRRRFSSLHFMVEVKGDLTAKKMVLALLELAQQDHGALDCCVVVILSHGCQASHLQFPGAVYGTDGCPVSVEKIVNIFNGTSCPSLGGKPKLFFIQAAGGEQKDHGFEVASTSPEDESPGSNPEPDATPFQEGLRTFDQLDAISSLPTPSDIFVSYSTFPGFVSWRDPKSGSWYVETLDDIFEQWAHSEDLQSLLLRVANAVSVKGIYKQMPGCFNFLRKKLFFKTS
With B3, in assay [1], the “induction of apoptosis / cell death on overexpression” value is “did not induce apoptotic changes”.
